Data on one molecule can be found in PMC405831 (Journal of Insect Science, 2002).

The target in this test is T1, Ecdysteroid receptor (EcR), ligand binding part (C-terminus of D- and E-domain) (UniProt P34021 400-655).
T1 sequence (looked up): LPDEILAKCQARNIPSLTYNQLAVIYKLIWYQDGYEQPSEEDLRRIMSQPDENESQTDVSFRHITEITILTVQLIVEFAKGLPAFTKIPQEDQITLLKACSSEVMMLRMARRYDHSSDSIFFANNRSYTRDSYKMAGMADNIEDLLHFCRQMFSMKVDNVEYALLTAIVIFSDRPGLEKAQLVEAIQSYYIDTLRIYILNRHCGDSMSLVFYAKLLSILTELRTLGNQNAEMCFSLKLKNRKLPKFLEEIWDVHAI
The test can be described thus: native gel or EMSA.

B1: Ultraspiracle (USP), ligand binding part (C-terminus of D- and E-domain) (domain or fragment, UniProt P20153 230-508, looked up)
chain: MTNSVSRDFSIERIIEAEQRAETQCGDRALTFLRVGPYSTVQPDYKGAVSALCQVVNKQLFQMVEYARMMPHFAQVPLDDQVILLKAAWIELLIANVAWCSIVSLDDGGAGGGGGGLGHDGSFERRSPGLQPQQLFLNQSFSYHRNSAIKAGVSAIFDRILSELSVKMKRLNLDRRELSCLKAIILYNPDIRGIKSRAEIEMCREKVYACLDEHCRLEHPGDDGRFAQLLLRLPALRSISLKCQDHLFLFRITSDRPLEELFLEQLEAPPPPGLAMKLE
For B1, the “fold of the affinity constant of heterodimerization against homodimerization” value was approximately 10 fold.
